This is an account of results in the supplement of paper PMC12042874.

± gives the uncertainty stated by the source.

The data set in a line: amyloid nucleation score (Sup35N fusion, yeast selection) (log enrichment); library NNK3; higher = more nucleation; inactive = no reads after selection. An outline of the steps: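 On medium lacking adenine and uracil, psi-negative yeast expressing peptides of 20 random codons fused to Sup35N were grown 7 days at 30°C after a 24-hour induction with 100 μM copper sulfate. Illumina sequencing of input and output plasmid inserts gave the reads, and sequences under 100 input reads were excluded. The nucleation score is the DiMSum log enrichment of output over input reads, centred on the mode score of non-aggregating sequences.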
Turning to RPRWFGPRSVVGMRASCTCW, the amyloid nucleation score result was “inactive”.

As to RQFCSQLICSIMVYVCLCGI, the amyloid nucleation score entry was “inactive”.

With RQGGVNRNSVSMHSHGYRDC, the amyloid nucleation score entry is “inactive”. RQSALRWFSNDNWGICKAHD registered an amyloid nucleation score of -0.06 ± 0.87. For RQVTLARWTISIC the value was “inactive”. For RRAVVLSVRGWRSAVTSRFS the value was “inactive”; for RRCSIFLVVDIAGQLQRFMS, “inactive”; for RRFTHRIEVRTSVAIS, “inactive”.

With RRGIWDSVKMEKFL, the amyloid nucleation score result was “inactive”. The same measure for RRKHHVISQVPERPLSWLAT: “inactive”. Regarding RRKKQFFFLFFSHRNLFFPV, the amyloid nucleation score is 2.18 ± 0.097. For RRKRYCISDLA the value was “inactive”; for RRKYW, “inactive”; for RRLLSKGVKIVRLISDEVYC, “inactive”. As to RRLQV, the amyloid nucleation score result was “inactive”. The same measure for RRLVMDTTRLACKRYWRFLN: “inactive”; for RRMNISRGSCVELWFRFQWP: 0.163 ± 0.43; for RRNEFVLWYLGDTSWYVWFS: 0.268 ± 0.27. The same measure for RRNWSCMQTLSLANVVRVSA: “inactive”; for RRRGNKAFHPLQ: “inactive”; for RRSYTFRSVGKEWNIAYWYI: “inactive”.

For the substance RRTMSSLFFKFDLH, the amyloid nucleation score result was “inactive”. For the substance RRYPRTLYERVSCVS, the amyloid nucleation score entry is “inactive”. With RRYVSSDFFLSAWWTVS, the amyloid nucleation score result is “inactive”. Regarding RSAERRAQNSNFKLVDLGRN, the amyloid nucleation score result was “inactive”. For RSAKAYLTLWCRMYNPRIYM the value was -0.345 ± 1.3. As for RSARQHFPRNRGGNHSSDRV, the amyloid nucleation score was 0.204 ± 0.43.

As for RSFRSKPKYLLTSDTCWSLT, the amyloid nucleation score result was “inactive”.

As for RSGWS, the amyloid nucleation score entry was “inactive”. In the case of RSHPKCHSSLLHSWK, the amyloid nucleation score entry was “inactive”.

RSIDGKSYNLAYLLGGLRNS yielded an amyloid nucleation score of 2.56 ± 0.065. The same measure for RSKRSLCRGLPDMYAWKWSR: “inactive”; for RSMSSGAICSMSY: “inactive”; for RSMVGWACYLSWRFA: “inactive”. The same measure for RSNLIILSAHYRLYMDLRCA: “inactive”; for RSQALFLNWTCDCGGYINQI: 1.01 ± 0.21; for RSQNF: “inactive”.

For RSRKKRCFLKFILKNFVWSV, the amyloid nucleation score entry was “inactive”. The same measure for RSRVSQFICRPGEVVNIAKC: “inactive”; for RSTRIGLIYYMGMSATCTWG: “inactive”. The same measure for RSTSSENYFYWFKS: “inactive”; for RSTSVWRFLWMLHVFSKLLH: “inactive”.

For RSTWMAIWKERYMQTGFL, the amyloid nucleation score result was “inactive”. In turn, RSVRFFVKMINFFASY displayed an amyloid nucleation score of 1.04 ± 0.15. Consider RSYLHCSTK, for which the amyloid nucleation score result was “inactive”. The same measure for RSYRI: “inactive”; for RTFMYMWRSEIF: “inactive”; for RTIQFPS: “inactive”. In the case of RTLRRLTGNSILFRYWSNKG, the amyloid nucleation score result was “inactive”. Substance RTLTLLYTFF returned an amyloid nucleation score of 2.56 ± 0.052. The same measure for RTRSVLQIWLSFMMLCQACW: -0.534 ± 1.5; for RTRTCRYFLIVYSVVCLMSI: “inactive”. In the case of RTSEPKTAHIMNEAIRRC, the amyloid nucleation score result is “inactive”.

As for RTSLYICINKRTLSHRLFPC, the amyloid nucleation score entry is “inactive”. Regarding RTVDSH, the amyloid nucleation score entry is “inactive”. For RTWNVESFREFGCFKINLGP the value was “inactive”; for RVAQTAVRVSWALDRFYLWD, “inactive”. For RVERICDNVSSC the value was -0.577 ± 1; for RVFNIEYMLECAFFRTIRD, “inactive”. RVKRWK yielded an amyloid nucleation score of -0.095 ± 0.85. As for RVLVHYEVGFSENSRWGSVD, the amyloid nucleation score worked out at 0.481 ± 0.32.

RVQIKVDGVSVHTDFSDWRS gave an amyloid nucleation score of 1.8 ± 0.086. For the substance RVQWALLSIKGHCS, the amyloid nucleation score was 0.645 ± 0.24. For RVRCDWCFGRGVCMTAIRQD the value was -0.147 ± 1.1; for RVRDCSHRLLDIFVYLCGNT, “inactive”; for RVRRLT, “inactive”. Take RVWVMV: the amyloid nucleation score entry was “inactive”. For RWELGIQALVR the value was “inactive”; for RWIFIT, “inactive”. RWKLFWIHDR displayed an amyloid nucleation score of 1.16 ± 0.14. For RWLFRSWPGRRMA the value was “inactive”. For RWLTVKPSRIRLWGCSWGLR the value was “inactive”; for RWRIEEPTI, “inactive”; for RWSILDGHHNVVLSVPSKS, “inactive”. Consider RWSNYMFDRQLY, for which the amyloid nucleation score is -1.2 ± 1.8.

Take RWVNWLLYDKV: the amyloid nucleation score result was “inactive”. Consider RYCGYHGVRFCSVCRFNMSL, for which the amyloid nucleation score entry is “inactive”. For the substance RYDMRVVSRNQLKYWTMGRE, the amyloid nucleation score was -0.646 ± 1.1. For RYFNGPYLGRTVFEFT the value was “inactive”; for RYFTLISYVVVVEVSLEKPW, “inactive”. The same measure for RYLITVAIPLSIGVLSTV: “inactive”; for RYLLPQIPLLYKWKLLILHG: “inactive”; for RYLYTRNLDMTRTL: “inactive”. The same measure for RYNRA: “inactive”; for RYPSDSIGFISLDTGGCGVR: “inactive”; for RYSVYGLNICFL: 2.45 ± 0.083.

Turning to RYTTY, the amyloid nucleation score result is “inactive”. The same measure for RYVEWYLR: “inactive”; for RYYCMYSSGEIRCSVSWGVW: “inactive”. Regarding SAACPWNWLDGASPPLRATA, the amyloid nucleation score entry was “inactive”. As for SACSVIFTEYINVSLLLSST, the amyloid nucleation score is 0.251 ± 0.42. The same measure for SADQSCYSPHFGGQRDRRWL: “inactive”; for SAEVAYGSFVYAGSWCRSVR: “inactive”. For SALEVFLWNKYLFVDVTLLL the value was “inactive”; for SALPVTSCFFTTMCGTVIID, “inactive”; for SAQNYTL, “inactive”. For SAVKWC the value was “inactive”; for SAWVVFVVFFVSFDPDILFY, “inactive”. With SCDLELSNLELRVWRDTVRK, the amyloid nucleation score was found to be 1.8 ± 0.069. For SCDRVFNLDVNRWKLMRKTC the value was “inactive”.

In the case of SCHSSSGGWEVSGNYRRGKL, the amyloid nucleation score result is “inactive”. The same measure for SCISKWST: “inactive”; for SCRFRVLRVFLGQTMYSSSI: “inactive”. On to SCVAVSI, for which the amyloid nucleation score result was “inactive”. In turn, SCVPWICWNCQVPGL yielded an amyloid nucleation score of 0.881 ± 0.18. For SCVRVTSLGVNNTRFFDRSW, the amyloid nucleation score entry was “inactive”. Consider SCVTHLPTVT, for which the amyloid nucleation score entry was “inactive”.

Turning to SDCKMISHFGEVINILSYKI, the amyloid nucleation score entry is “inactive”. The same measure for SDDDSYLWSSLFQA: “inactive”; for SDFAIWKDFDG: 1.21 ± 0.1; for SDFEAFSFGDNMVFLIEMEG: “inactive”.

SDFHCTQKRNMVWEEIA: the amyloid nucleation score entry was “inactive”. As to SDFRTRTNIQYLQYKNNSSP, the amyloid nucleation score result was “inactive”.

In the case of SDGFLSADYRFFMMLRYRLE, the amyloid nucleation score entry was “inactive”. Regarding SDHLQ, the amyloid nucleation score entry was “inactive”. For SDIVCVKLEYT the value was “inactive”; for SDKFMLRHHLCWDARSCFQV, 0.348 ± 0.75; for SDKLSFSRDPSVMRVGQVQR, “inactive”. As to SDKRPWGFRNRDIYVIVGHR, the amyloid nucleation score result is “inactive”.

In the case of SDLCRSMSNQFSELSSNDFV, the amyloid nucleation score result was “inactive”. Regarding SDLMRKKMDGMDRNEGCPIR, the amyloid nucleation score entry was “inactive”. SDRARRC registered an amyloid nucleation score of 0.163 ± 0.98. The same measure for SDYLRMVVTYPQTLLYQGTK: “inactive”; for SDYSLYWFK: “inactive”. In the case of SEIIHLGFYYDP, the amyloid nucleation score entry was “inactive”.

For SELETQDIYMRSQPFTEFSP, the amyloid nucleation score result was “inactive”. On to SERYEEMTFSDGYMFSRDDL, for which the amyloid nucleation score result was “inactive”. SEYFWLVWPSA: the amyloid nucleation score result was “inactive”.

Take SFCGLYVKFSVGYVVLIWGS: the amyloid nucleation score result is “inactive”.

SFDARCGWKLNMFYSCSFIQ returned an amyloid nucleation score of -0.009 ± 0.81.

On to SFDVLSRV, for which the amyloid nucleation score result was “inactive”. In the case of SFESVVYYSWRFVAKFKFWT, the amyloid nucleation score entry was “inactive”. For SFHTHRGYNG, the amyloid nucleation score result is “inactive”.
